# Target: T1, human gastric inhibitory peptide receptor (hGIPR) (Homo sapiens, UniProt P48546)
# T1 construct: expressed in transfected cells; host or cells: HEK293
# T1 sequence (P48546 22-466): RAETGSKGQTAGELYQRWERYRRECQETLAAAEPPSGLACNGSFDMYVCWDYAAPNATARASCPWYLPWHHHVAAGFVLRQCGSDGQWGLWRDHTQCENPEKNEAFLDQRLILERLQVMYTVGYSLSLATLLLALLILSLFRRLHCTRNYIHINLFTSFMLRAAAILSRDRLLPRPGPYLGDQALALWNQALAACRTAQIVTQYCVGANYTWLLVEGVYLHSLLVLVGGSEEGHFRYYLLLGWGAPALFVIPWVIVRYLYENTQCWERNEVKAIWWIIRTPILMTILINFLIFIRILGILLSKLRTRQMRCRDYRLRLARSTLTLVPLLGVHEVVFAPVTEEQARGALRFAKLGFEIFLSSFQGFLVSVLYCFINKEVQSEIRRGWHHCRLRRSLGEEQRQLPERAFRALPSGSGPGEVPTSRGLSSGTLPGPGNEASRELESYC
# Test: cAMP pharmacological functional assay in presence of 0.1% casein, hGIPR
# Type: cell-based
# Conditions: ratio of hGIPR to hGLP1R cAMP EC50 ratios
# Experimental: Each receptor over-expressing cell line (20 μl) is treated with the test peptide in DMEM (Gibco Cat #31053) supplemented with 0.1% Casein (Sigma Cat #C4765), 250 μM IBMX, 1× GlutaMAX™ (Gibco Cat #35050), and 20 mM HEPES (HyClone Cat #SH30237.01) in a 20 μl assay volume. […] EC50 is the concentration of compound causing half-maximal simulation in a dose response curve. A relative EC50 value is derived by non-linear regression analysis using the percent maximal response vs. the concentration of peptide added, fitted to a four-parameter logistic equation.
# Intracellular cAMP levels are determined by extrapolation using a standard curve. Dose response curves of compounds are plotted as the percentage of stimulation normalized to minimum (buffer only) and maximum (maximum concentration of each control ligand) values and analyzed using a four parameter non-linear regression fit with a variable slope (Genedata Screener 13). EC50 is the concentration of compound causing half-maximal simulation in a dose response curve.
# EC50 is the concentration of compound causing half-maximal simulation in a dose response curve.
row,Substance,[hGIPR/hGLP1R] EC50 Ratio
1,"Y-Aib-EGT-αMeF(2F)-TSD-4Pal-SI-αMeL-LDEK((2-[2-(2-Amino-ethoxy)-ethoxy]-acetyl)2-(γGlu)-CO—(CH2)16—CO2H)AQ-Aib-EFI-(D-Glu)-YLIEGGPSSGAPPPS-NH2 (YXEGTXTSDXSIXLDEKAQXEFIXYLIEGGPSSGAPPPS; Aib, αMeF(2F), 4Pal, αMeL, D-Glu; lipidated K; amide; (2)..(2) Xaa at position 2 is Aib; (6)..(6) Xaa at position 6 is alpha-methyl-Phe(2F); (10)..(10) Xaa at position 10 is 4Pal; (13)..(13) Xaa at position 13 is alpha-methyl-Leu; MOD_RES (17)..(17) Lys at position 17 is chemically modified by conjugation of the epsilon-amino group of the Lys side chain with (2-[2-(2-amino-ethoxy)-ethoxy]-acetyl)2-(gamma-Glu)-CO-(CH2)16- CO2H; (20)..(20) Xaa at posit) [Peptide 204]",6.65
2,"Y-Aib-EGT-αMeF(2F)-TSD-4Pal-SI-αMeL-LDEK((2-[2-(2-Amino-ethoxy)-ethoxy]-acetyl)2-(γGlu)-CO—(CH2)18—CO2H)AQ-Aib-EFI-(D-Glu)-YLIEGGPSSGAPPPS-NH2 (YXEGTXTSDXSIXLDEKAQXEFIXYLIEGGPSSGAPPPS; Aib, αMeF(2F), 4Pal, αMeL, D-Glu; lipidated K; amide; (2)..(2) Xaa at position 2 is Aib; (6)..(6) Xaa at position 6 is alpha-methyl-Phe(2F); (10)..(10) Xaa at position 10 is 4Pal; (13)..(13) Xaa at position 13 is alpha-methyl-Leu; MOD_RES (17)..(17) Lys at position 17 is chemically modified by conjugation of the epsilon-amino group of the Lys side chain with (2-[2-(2-amino-ethoxy)-ethoxy]-acetyl)2-(gamma-Glu)-CO-(CH2)18- CO2H; (20)..(20) Xaa at posit) [Peptide 182]",5.01
3,"Y-Aib-EGT-αMeF(2F)-TSD-4Pal-SI-αMeL-LDEK((2-[2-(2-Amino-ethoxy)-ethoxy]-acetyl)2-(γGlu)-CO—(CH2)18—CO2H)AQ-Aib-EFI-Aib-YLIEGGPSSGAPPPS-NH2 (YXEGTXTSDXSIXLDEKAQXEFIXYLIEGGPSSGAPPPS; Aib, αMeF(2F), 4Pal, αMeL; lipidated K; amide; (2)..(2) Xaa at position 2 is Aib; (6)..(6) Xaa at position 6 is alpha-methyl-Phe(2F); (10)..(10) Xaa at position 10 is 4Pal; (13)..(13) Xaa at position 13 is alpha-methyl-Leu; MOD_RES (17)..(17) Lys at position 17 is chemically modified by conjugation of the epsilon-amino group of the Lys side chain with (2-[2-(2-amino-ethoxy)-ethoxy]-acetyl)2-(gamma-Glu)-CO-(CH2)18- CO2H; (20)..(20) Xaa at posit) [Peptide 189]",3.61
4,"Y-Aib-EGT-αMeF(2F)-TSD-4Pal-SI-αMeL-LDEK((2-[2-(2-Amino-ethoxy)-ethoxy]-acetyl)2-(εK)-CO—(CH2)18—CO2H)AQ-Aib-EFI-(D-Glu)-YLIEGGPSSGAPPPS-NH2 (YXEGTXTSDXSIXLDEKAQXEFIXYLIEGGPSSGAPPPS; Aib, αMeF(2F), 4Pal, αMeL, D-Glu; εK-lipidated K; amide; (2)..(2) Xaa at position 2 is Aib; (6)..(6) Xaa at position 6 is alpha-methyl-Phe(2F); (10)..(10) Xaa at position 10 is 4Pal; (13)..(13) Xaa at position 13 is alpha-methyl-Leu; MOD_RES (17)..(17) Lys at position 17 is chemically modified by conjugation of the epsilon-amino group of the Lys side chain with (2-[2-(2-Amino-ethoxy)-ethoxy]-acetyl)2-(epsilon-Lys)-CO-(CH2)18- CO2H; (20)..(20) Xaa at pos) [Peptide 207]",3.87
5,"Y-Aib-EGT-αMeF(2F)-TSD-4Pal-SI-αMeL-LDEK((2-[2-(2-Amino-ethoxy)-ethoxy]-acetyl)2-CO—(CH2)16—CO2H)AQ-Aib-EFI-(D-Glu)-YLIEGGPSSGAPPPS-NH2 (YXEGTXTSDXSIXLDEKAQXEFIXYLIEGGPSSGAPPPS; Aib, αMeF(2F), 4Pal, αMeL, D-Glu; lipidated K; amide; (2)..(2) Xaa at position 2 is Aib; (6)..(6) Xaa at position 6 is alpha-methyl-Phe(2F); (10)..(10) Xaa at position 10 is 4Pal; (13)..(13) Xaa at position 13 is alpha-methyl-Leu; MOD_RES (17)..(17) Lys at position 17 is chemically modified by conjugation of the epsilon-amino group of the Lys side chain with (2-[2-(2-amino-ethoxy)-ethoxy]-acetyl)2-CO-(CH2)16-CO2H; (20)..(20) Xaa at position 20 is Aib) [Peptide 205]",3.91
6,"Y-Aib-EGT-αMeF(2F)-TSD-4Pal-SI-αMeL-LDEK((2-[2-(2-Amino-ethoxy)-ethoxy]-acetyl)2CO—(CH2)18—CO2H)AQ-Aib-EFI-(D-Glu)-YLIEGGPSSGAPPPS-NH2 (YXEGTXTSDXSIXLDEKAQXEFIXYLIEGGPSSGAPPPS; Aib, αMeF(2F), 4Pal, αMeL, D-Glu; lipidated K; amide; (2)..(2) Xaa at position 2 is Aib; (6)..(6) Xaa at position 6 is alpha-methyl-Phe(2F); (10)..(10) Xaa at position 10 is 4Pal; (13)..(13) Xaa at position 13 is alpha-methyl-Leu; MOD_RES (17)..(17) Lys at position 17 is chemically modified by conjugation of the epsilon-amino group of the Lys side chain with (2-[2-(2-amino-ethoxy)-ethoxy]-acetyl)2-CO-(CH2)18-CO2H; (20)..(20) Xaa at position 20 is Aib) [Peptide 206]",3.35
7,"Y-Aib-EGT-αMeF(2F)-TSD-4Pal-SI-αMeL-LDKK((2-[2-(2-Amino-ethoxy)-ethoxy]-acetyl)2-(γGlu)-CO—(CH2)18—CO2H)AQ-Aib-EFI-(D-Glu)-YLIEGGPSSGAPPPS-NH2 (YXEGTXTSDXSIXLDKKAQXEFIXYLIEGGPSSGAPPPS; Aib, αMeF(2F), 4Pal, αMeL, D-Glu; lipidated K; amide; (2)..(2) Xaa at position 2 is Aib; (6)..(6) Xaa at position 6 is alpha-methyl-Phe(2F); (10)..(10) Xaa at position 10 is 4Pal; (13)..(13) Xaa at position 13 is alpha-methyl-Leu; MOD_RES (17)..(17) Lys at position 17 is chemically modified by conjugation of the epsilon-amino group of the Lys side chain with (2-[2-(2-amino-ethoxy)-ethoxy]-acetyl)2-(gamma-Glu)-CO-(CH2)18- CO2H; (20)..(20) Xaa at posit) [Peptide 203]",7.38
